{"source": "patent US20240317834A1", "about": "“COMPOSITIONS AND METHODS FOR NEUROLOGICAL DISEASES” (CODA BIOTHERAPEUTICS, INC., priority 2020, published 2024)", "molecules": {"B1": {"name": "CODA340: engineered chimeric LGIC receptor, L131E in SEQ ID NO: 33 (protein)", "chain": "MRCSPGGVWLALAASLLHVSLQGEFQRKLYKELVKNYNPLERPVANDSQPLTVYFSLSLLQIMDVDEKNQVLTTNIWLQMSWTDHYLQWNVSEYPGVKTVRFPDGQIWKPDILLYNSADERFDATFHTNVEVNSSGHCQYLPPGIFKSSCPMDLKNFPMDVQTCKLKFGSWSYGGWSLDLQMQEADISGYIPNGEWDLVGIPGKRSERFYECCKEPYPDVTFTVTMRRRMGYYLIQMYIPSLLIVILSWISFWINMDAAPARVGLGITTVLTMTTQSSGSRASLPKVSYVKAIDIWMAVCLLFVFSALLEYAAVNFVSRQHKELLRFRRKRRHHKSPMLNLFQEDEAGEGRFNFSAYGMGPACLQAKDGISVKGANNSNTTNPPPAPSKSPEEMRKLFIQRAKKIDKISRIGFPMAFLIFNMFYWIIYKIVRREDVHNQ", "modifications": "synthetic sequence of chimeric LGIC"}}, "system": "Lenti-X 293T cells", "test": "YFP fluorescence quenching anion reporter plate reader assay of engineered receptors stimulated with acetylcholine or a non-native ligand", "assay_type": "cell-based", "procedure,_shortened": "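YFP quench was followed for about 1 min 43 s after ligand delivered in iodide-based ECS, pH 7.2. Values are end-of-read fluorescence (last 10 s) divided by the pre-ligand baseline (15 s). Cells were LX293T, transfected with receptor DNA a day before the assay.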"}
{"molecule": "B1", "values": [{"measurement": "YFP fluorescence quenching using CNL001", "setting": "1 nM CNL001, first column", "result": 76.413, "unit": "%"}, {"measurement": "YFP fluorescence quenching using CNL001", "setting": "1 nM CNL001, second column", "result": 77.144, "unit": "%"}, {"measurement": "YFP fluorescence quenching using TC-5619/Bradanicline", "setting": "3 nM brd", "result": 68.57, "unit": "%"}, {"measurement": "YFP fluorescence quenching using Varenicline", "setting": "3 nM var, first column", "result": "−4.061"}, {"measurement": "YFP fluorescence quenching using Varenicline", "setting": "3 nM var, second column", "result": "−0.568"}, {"measurement": "YFP fluorescence quenching using CNL001", "setting": "10 nM CNL001, first column", "result": 78.258, "unit": "%"}, {"measurement": "YFP fluorescence quenching using CNL001", "setting": "10 nM CNL001, second column", "result": 78.763, "unit": "%"}, {"measurement": "YFP fluorescence quenching using TC-5619/Bradanicline", "setting": "30 nM brd", "result": 76.85, "unit": "%"}, {"measurement": "YFP fluorescence quenching using Facinicline", "setting": "30 nM fac", "result": 82.51}, {"measurement": "YFP fluorescence quenching using Varenicline", "setting": "30 nM var, first column", "result": 62.964}, {"measurement": "YFP fluorescence quenching using Varenicline", "setting": "30 nM var, second column", "result": 63.631}, {"measurement": "YFP fluorescence quenching using CNL001", "setting": "50 nM CNL001, first column", "result": 79.757, "unit": "%"}, {"measurement": "YFP fluorescence quenching using CNL001", "setting": "50 nM CNL001, second column", "result": 79.327, "unit": "%"}, {"measurement": "YFP fluorescence quenching using ABT-126", "setting": "50 nM abt", "result": 2.2, "unit": "%"}, {"measurement": "YFP fluorescence quenching using CNL001", "setting": "100 nM CNL001, first column", "result": 79.011, "unit": "%"}, {"measurement": "YFP fluorescence quenching using CNL001", "setting": "100 nM CNL001, second column", "result": 79.948, "unit": "%"}, {"measurement": "YFP fluorescence quenching using CNL002", "setting": "100 nM CNL002", "result": 49.97, "unit": "%"}, {"measurement": "YFP fluorescence quenching using ABT-126", "setting": "100 nM abt", "result": 25.39, "unit": "%"}, {"measurement": "YFP fluorescence quenching using AZD-0328", "setting": "100 nM azd0328", "result": 82.48, "unit": "%"}, {"measurement": "YFP fluorescence quenching using Facinicline", "setting": "100 nM fac", "result": 83.6}, {"measurement": "YFP fluorescence quenching using ABT-126", "setting": "300 nM abt", "result": 36.48, "unit": "%"}, {"measurement": "YFP fluorescence quenching using AZD-0328", "setting": "300 nM azd0328", "result": 82.04, "unit": "%"}, {"measurement": "YFP fluorescence quenching using TC-5619/Bradanicline", "setting": "300 nM brd", "result": 78.49, "unit": "%"}, {"measurement": "YFP fluorescence quenching using Facinicline", "setting": "300 nM fac", "result": 82.92}, {"measurement": "YFP fluorescence quenching using Varenicline", "setting": "300 nM var, first column", "result": 74.912}, {"measurement": "YFP fluorescence quenching using Varenicline", "setting": "300 nM var, second column", "result": 75.084}, {"measurement": "YFP fluorescence quenching using Varenicline", "setting": "500 nM var, first column", "result": 76.346}, {"measurement": "YFP fluorescence quenching using Varenicline", "setting": "500 nM var, second column", "result": 75.876}, {"measurement": "YFP fluorescence quenching using CNL001", "setting": "1 uM CNL001, first column", "result": 79.855, "unit": "%"}, {"measurement": "YFP fluorescence quenching using CNL001", "setting": "1 uM CNL001, second column", "result": 80.618, "unit": "%"}, {"measurement": "YFP fluorescence quenching using CNL002", "setting": "1 uM CNL002", "result": 67.8, "unit": "%"}, {"measurement": "YFP fluorescence quenching using ABT-126", "setting": "1 uM abt", "result": 50.76, "unit": "%"}, {"measurement": "YFP fluorescence quenching using TC-6987", "setting": "1 uM tc6987", "result": 80.13}, {"measurement": "YFP fluorescence quenching using Varenicline", "setting": "1 uM var, first column", "result": 75.805}, {"measurement": "YFP fluorescence quenching using Varenicline", "setting": "1 uM var, second column", "result": 74.856}, {"measurement": "YFP fluorescence quenching using TC-6987", "setting": "10 uM tc6987", "result": 81.29}, {"measurement": "YFP fluorescence quenching using CNL002", "setting": "30 uM CNL002", "result": 64.58, "unit": "%"}, {"measurement": "YFP fluorescence quenching using AZD-0328", "setting": "30 uM azd0328", "result": 81.8, "unit": "%"}, {"measurement": "YFP fluorescence quenching using Facinicline", "setting": "30 uM fac", "result": 82.68}, {"measurement": "YFP fluorescence quenching using TC-6987", "setting": "500 uM tc6987", "result": 79.6}, {"measurement": "percent quench of YFP fluorescence, 30 nM TC-6683", "setting": "TC-6683 30 nM", "result": 30.14, "unit": "%"}, {"measurement": "percent quench of YFP fluorescence, 300 nM TC-6683", "setting": "TC-6683 300 nM", "result": 33.02, "unit": "%"}, {"measurement": "percent quench of YFP fluorescence, 3 uM TC-6683", "setting": "TC-6683 3 uM", "result": 41.68, "unit": "%"}, {"measurement": "percent quench of YFP fluorescence, 30 uM TC-6683", "setting": "TC-6683 30 uM", "result": 35.75, "unit": "%"}, {"measurement": "percent quench of YFP fluorescence, 100 uM TC-6683", "setting": "TC-6683 100 uM", "result": 24.32, "unit": "%"}, {"measurement": "percent quench of YFP fluorescence, 10 uM ach", "setting": "acetylcholine 10 uM", "result": 15.29, "unit": "%"}, {"measurement": "percent quench of YFP fluorescence, 30 uM ach", "setting": "acetylcholine 30 uM", "result": 66.56, "unit": "%"}, {"measurement": "percent quench of YFP fluorescence, 100 uM ach", "setting": "acetylcholine 100 uM", "result": 81.31, "unit": "%"}, {"measurement": "percent quench of YFP fluorescence, 1 mM ach", "setting": "acetylcholine 1 mM", "result": 80.77, "unit": "%"}, {"measurement": "percent quench of YFP fluorescence, 3 mM ach", "setting": "acetylcholine 3 mM", "result": 77.31, "unit": "%"}]}
